Test results published in paper PMC7010817.

Target: PPARα (UniProt P23204)
Experiment: Flag-JMJD3 co-IP, PPARα immunoblot
Conditions: reference: wild type, FGF21-treated; sites T1044

binding against the reference: weaker
Substance: JMJD3 (KDM6B) (from UniProt Q5NCY0) T1044A, FGF21-treated
